In US20190127480A1 (Regeneron, published 2019):

Experiments:
[1] = biological target: T1, human CD3 expressed on cells (Jurkat cells; human T-cells of PBMC) (human, UniProt P09693 23-182; P20963 22-164); test: cell-based or functional assay
[2] = biological target: cynomolgus monkey CD3 expressed on monkey T-cells (PBMCs) (cynomolgus monkey, UniProt Q95LI5 22-198; Q95LI8 22-171); test: cell-based or functional assay
[3] = biological target: T1, human CD3 expressed on cells (Jurkat …); test: cell-based or functional assay; remark: listed apart in the source
[4] = biological target: T1, human CD3 expressed on cells (Jurkat …); test: FACS titration on Jurkat cells (CD3+ human T-cell line)
Procedure: FACS data was acquired using the following protocol: Cells at 2×10⁵ per well were incubated with serially diluted antibodies for 30 min on ice. Post incubation, cells were washed and secondary antibody was added and incubated for an additional 30 minutes. After incubation, cells were washed, re-suspended in cold PBS containing 1% BSA and analyzed by flow cytometry with viable Jurkat cells gated by side and forward scatters. The EC₅₀s for cell binding titration were determined using Prism software with values calculated using a 4-parameter non-linear regression analysis.

[5] = biological target: T2, human CD3 on CD3-expressing cells (Jurkat, human T cells) (human, UniProt P07766 23-207; P04234 22-171); test: FACS on Jurkat cells
T2 construct: On cells CD3 stands within the T cell receptor complex (also gamma and zeta chains); also called human CD3 expressing Jurkat cells
T2 sequence (P07766 23-207 limits assumed, chain 1 of 2): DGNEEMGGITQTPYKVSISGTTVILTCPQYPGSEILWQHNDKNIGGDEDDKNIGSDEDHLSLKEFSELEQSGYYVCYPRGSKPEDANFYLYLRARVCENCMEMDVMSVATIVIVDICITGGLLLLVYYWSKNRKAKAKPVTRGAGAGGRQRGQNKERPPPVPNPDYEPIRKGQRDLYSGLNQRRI
T2 sequence (P04234 22-171 limits assumed, chain 2 of 2): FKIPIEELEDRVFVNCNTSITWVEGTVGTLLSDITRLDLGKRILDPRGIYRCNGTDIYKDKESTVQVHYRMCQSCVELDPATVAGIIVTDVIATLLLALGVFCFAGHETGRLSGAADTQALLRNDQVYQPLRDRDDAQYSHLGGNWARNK
Procedure: (§1) Briefly, 2×10⁵ cells/well of human CD3-expressing Jurkat, cynomolgus T, or human PSMA-specific expressing cells were incubated with a serial dilution of bispecific antibodies for 30 min at 4° C. After incubation, cells were washed and a goat F(ab′)₂ anti-human Fcγ PE labeled secondary (Jackson Immunolabs) was added to the cells for an additional 30 min. Next, cells were washed, re-suspended in cold PBS+1% BSA and analyzed via flow cytometry on a BD FACS Canto II.
(§2) For FACS analysis, cells were gated by forward scatter height vs. forward scatter area for single events selection, followed by side and forward scatters. The EC₅₀ for cell binding titration was determined using Prism software. Values were calculated using 4-parameter non-linear regression analysis.

[6] = biological target: T3, human PSMA on PSMA-expressing cells (human, UniProt Q04609 1-750); test: cell-based or functional assay
T3 sequence (Q04609 whole entry): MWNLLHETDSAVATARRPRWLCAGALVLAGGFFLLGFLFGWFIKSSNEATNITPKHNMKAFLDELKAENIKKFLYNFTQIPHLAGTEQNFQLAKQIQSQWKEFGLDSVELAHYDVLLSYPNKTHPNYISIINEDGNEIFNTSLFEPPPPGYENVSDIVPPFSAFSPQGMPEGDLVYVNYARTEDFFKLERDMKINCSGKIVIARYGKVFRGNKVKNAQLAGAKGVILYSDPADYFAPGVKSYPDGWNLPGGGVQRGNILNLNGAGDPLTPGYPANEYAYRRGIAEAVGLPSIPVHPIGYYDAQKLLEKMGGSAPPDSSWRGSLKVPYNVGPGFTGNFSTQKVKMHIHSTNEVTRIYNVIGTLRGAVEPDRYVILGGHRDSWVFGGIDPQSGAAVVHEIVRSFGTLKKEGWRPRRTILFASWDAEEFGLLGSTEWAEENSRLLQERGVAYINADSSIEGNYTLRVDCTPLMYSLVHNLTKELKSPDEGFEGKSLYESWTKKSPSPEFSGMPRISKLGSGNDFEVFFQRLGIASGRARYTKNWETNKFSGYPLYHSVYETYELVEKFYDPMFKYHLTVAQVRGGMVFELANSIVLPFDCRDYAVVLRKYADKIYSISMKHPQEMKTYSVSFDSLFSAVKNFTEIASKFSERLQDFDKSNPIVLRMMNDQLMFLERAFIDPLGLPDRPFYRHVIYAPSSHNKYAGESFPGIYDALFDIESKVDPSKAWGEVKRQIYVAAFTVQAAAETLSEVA

[7] = biological target: T2, human CD3 on CD3-expressing cells …; test: cell-based or functional assay
[8] = biological target: T3, human PSMA on PSMA-expressing cells; test: FACS on B16F10.9/PSMA cells
Procedure: as §1, §2

[9] = biological target: T4, soluble heterodimeric hCD3ε/δ.mFc protein (human); test: SPR MASS-1, 37 C, antigen-capture (hCD3ε/δ.mFc captured), antibody injected
T4 construct: also called soluble human CD3; soluble heterodimeric CD3 protein
T4 chain 1: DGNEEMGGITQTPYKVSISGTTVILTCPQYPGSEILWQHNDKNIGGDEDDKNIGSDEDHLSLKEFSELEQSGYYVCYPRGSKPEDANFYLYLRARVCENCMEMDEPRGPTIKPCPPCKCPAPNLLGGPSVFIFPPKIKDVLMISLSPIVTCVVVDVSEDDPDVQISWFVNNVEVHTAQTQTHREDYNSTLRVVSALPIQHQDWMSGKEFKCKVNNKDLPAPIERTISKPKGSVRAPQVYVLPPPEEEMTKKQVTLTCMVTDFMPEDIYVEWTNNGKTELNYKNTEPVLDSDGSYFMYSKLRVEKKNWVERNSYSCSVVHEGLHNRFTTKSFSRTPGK
T4 chain 2: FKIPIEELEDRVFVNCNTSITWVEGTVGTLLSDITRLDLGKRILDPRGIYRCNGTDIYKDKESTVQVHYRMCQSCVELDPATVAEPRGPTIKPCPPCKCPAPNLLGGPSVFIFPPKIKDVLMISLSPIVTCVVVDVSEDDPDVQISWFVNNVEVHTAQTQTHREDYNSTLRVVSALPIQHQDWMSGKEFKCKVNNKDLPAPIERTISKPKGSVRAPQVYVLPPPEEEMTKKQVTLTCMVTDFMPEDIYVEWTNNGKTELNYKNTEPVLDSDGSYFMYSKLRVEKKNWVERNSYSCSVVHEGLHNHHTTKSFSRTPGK
Procedure: Measurements were conducted on a Sierra Sensors MASS-1 instrument.
In the antigen-capture format, the MASS-1 high-density amine sensor surface was derivatized with a goat anti-mouse IgG2a polyclonal antibody (Southern Biotech). Soluble heterodimeric CD3 protein was captured and the respective antibodies were injected over the captured antigen.
Kinetic association (kₐ) and dissociation (kd) rate constants were determined by processing and fitting the data to a 1:1 binding model using MASS-1 AnalyserR2 curve fitting software. Binding dissociation equilibrium constants (KD) and dissociative half-lives (t_{1/2}) were calculated from the kinetic rate constants as: KD (M)=kd/kₐ; and t_{1/2} (min)=(ln 2/(60*kd).

Chain of cynomolgus monkey CD3 expressed on monkey T-cells (PBMCs) (Q95LI5 22-198, chain 1 of 2): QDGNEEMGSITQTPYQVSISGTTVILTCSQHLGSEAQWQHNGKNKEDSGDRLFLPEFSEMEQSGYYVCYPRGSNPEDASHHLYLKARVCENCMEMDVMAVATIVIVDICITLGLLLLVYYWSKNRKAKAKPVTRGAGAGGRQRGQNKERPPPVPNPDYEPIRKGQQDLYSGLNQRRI
Chain of cynomolgus monkey CD3 expressed on monkey T-cells (PBMCs) (Q95LI8 22-171, chain 2 of 2): as the sequence (P04234 22-171 limits assumed, chain 2 of 2) above, with I5V, N15K, I20V, S32T, D33N, I34N, T64A, S74N, V83L, H141R counted along it
T1 sequence (chain, as listed by the source, chain 1 of 4): as the sequence (P07766 23-207 limits assumed, chain 1 of 2) above
T1 sequence (chain, as listed by the source, chain 2 of 4): as the sequence (P04234 22-171 limits assumed, chain 2 of 2) above
T1 sequence (P09693 23-182, chain 3 of 4): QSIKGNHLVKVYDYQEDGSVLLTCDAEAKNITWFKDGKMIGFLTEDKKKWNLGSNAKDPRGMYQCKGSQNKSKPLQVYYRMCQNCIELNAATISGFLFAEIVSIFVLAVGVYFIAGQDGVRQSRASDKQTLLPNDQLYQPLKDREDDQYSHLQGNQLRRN
T1 sequence (P20963 22-164, chain 4 of 4): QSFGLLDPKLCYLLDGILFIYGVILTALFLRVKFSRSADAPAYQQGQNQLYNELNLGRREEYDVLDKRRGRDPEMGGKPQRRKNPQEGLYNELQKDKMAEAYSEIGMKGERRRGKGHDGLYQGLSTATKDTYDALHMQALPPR

| EC50 [M] hPBMC Proliferation [1] [M] | EC50 [M] mfPBMC Proliferation [2] [M] | EC50 [4] [nM] | Binder | U937 Cytotoxicity Human T-cells [3] [pM] | other results |
| --- | --- | --- | --- | --- | --- |
| 5.04e-12 | 5.93e-13 | 0.685 | H1H5778P (antibody, human IgG1, V domains shown, H1H: human IgG1 Fc) VH: EVQLVESGGGLVQPGRSLRLSCVASGFTFADFTMHWVRQAPGKGLEWVSGISWNSNSIDYADSVKGRFTISRDNAKKSLFLQMSSLRAEDTALYYCVKDRSGYSRFYYGMDVWGQGTTVTVSS VL: EIVMTQSPATLSVSPGERAILSCRASQNINSNLAWYQQKPGQAPRLLIYGASTRATGVPARFSGSGSGTEFTLTIRSLQSEDFAVYYCQQYYNWPITFGHGTRLEIK | 0.341 |  |
| 4.62e-12 | 2.01e-12 | 3.53 | H1H5788P (antibody, V domains shown, H1H: human IgG1 Fc) VH: EVQLVESGGGLVQPGRSLRLSCAASGFTFDDYTMHWVRQAPGKGLEWVSGISWNSGSIGYADSVKGRFTISRDNAKNSLYLQMNSLRAEDTALFYCAKDQSGYGHYYYGMDVWGQGTTVTVSS VL: EIVMTQSPATLSVSPGERATLSCRASQSVSSNLAWYQQKPGQAPRLLIYGASTRATDIPARFSGSGSGTEFTLTISSLQSEDFAVYHCQQYNNWPLTFGGGTKVEIK | 15.4 |  |
|  |  |  | BSPSMA/CD3-900 (bispecific antibody, IgG4, V domains shown, modified (chimeric) IgG4 Fc domain; also called PSMA-VH-11810 x CD3-VH-G9) VH 1: QVQLVESGGGVVQPGRSLRLSCAASGFTFSSYGMHWVRQAPGKGLEWVAVISYAGNNKYYADSVKGRFTVSRDNSKKTLYLQMNSLRSEDTAVYYCAKDSYYDFLTDPDVLDIWGQGTMVTVSS VH 2: EVQLVESGGGLVQPGRSLRLSCAASGFTFDDYSMHWVRQAPGKGLEWVSGISWNSGSKGYADSVKGRFTISRDNAKNSLYLQMNSLRAEDTALYYCAKDGSGYGKFYHYGLDVWGQGTTVTVSS VL: DIQMTQSPSSLSASVGDSVTITCRASQSINNYLNWYQQKPGKAPKLLIYTASSLLSGVPSRFSGSGSGTDFTLTISGLHPEDFATYFCQQSFSTPPITFGQGTRLDIK |  | EC50 [5]: 274 nM; TrampC2.PSMA Cell depletion EC50 [6]: 3.5 pM; T cell activation EC50 [7]: 1.12 pM; EC50 [8]: 1.43 nM; Kd [9]: 113 nM; T½ [9]: 2.3 min; koff [9]: 0.00495 s⁻¹; kon [9]: 43800 M⁻¹ s⁻¹ |
|  |  |  | BSPSMA/CD3-2100 (bispecific antibody, IgG4, V domains shown, modified (chimeric) IgG4 Fc domain; also called PSMA-VH-11810 x CD3-VH-G21) VH 1: QVQLVESGGGVVQPGRSLRLSCAASGFTFSSYGMHWVRQAPGKGLEWVAVISYAGNNKYYADSVKGRFTVSRDNSKKTLYLQMNSLRSEDTAVYYCAKDSYYDFLTDPDVLDIWGQGTMVTVSS VH 2: EVQLVESGGGLVQPGRSLRLSCAASGFTFDDYSMHWVRQAPGKGLEWVSGISWNSGSKGYADSVKGRFTISRDNAKNSLYLQMNSLRAEDTALYYCAKDGSGYGKFYYYGMDVWGQGTTVTVSS VL: DIQMTQSPSSLSASVGDSVTITCRASQSINNYLNWYQQKPGKAPKLLIYTASSLLSGVPSRFSGSGSGTDFTLTISGLHPEDFATYFCQQSFSTPPITFGQGTRLDIK |  | EC50 [5]: 106 nM; EC50 [8]: 1.14 nM; Kd [9]: 77.5 nM; T½ [9]: 4.9 min; koff [9]: 0.00234 s⁻¹; kon [9]: 30200 M⁻¹ s⁻¹ |
|  | 2.81e-09 |  | H1H5761P (antibody, human IgG1, V domains shown) VH: QVQLVESGGGVVQPGRSLRLSCAASGFTFSSYGMHWVRQAPGKGLEWVAVISYDGSNKYYADSVKGRFTISRDYSKNTLYLQMNSLRAEDTAVFYCAKGAMVRGVPYNYYYGMDVWGQGTTVTVSS VL: DIQMTQSPSSLSASVGDRVTITCRASQGIRNDLGWFQQKPGKAPKRLIYAASSLQSGVPSRFSGSGSGTEFTLTISSLQPEDFATYYCLQHNSYPYTFGQGTKLEIK |  |  |
| 3.27e-13 | 4.06e-10 | 0.88 | H1H5764P (antibody, human IgG1, V domains shown, H1H: human IgG1 Fc) VH: QVQLVESGGGVVQPGRSLRLSCAASGFTFRSFGMHWVRQAPGKGLEWVAVISYDGNYKYYADSVKGRFTISRDNSKNTLYLQMNSLRAEDTAVHYCAKGAMVRGVPYNFYYGMDVWGQGTTVTVSS VL: DIQMTQSPSSLSASVGDRVTITCRASQVIRNDLGWYQQKPGKAPKRLIYAASSLQSGIPSRFSGSGSGTEFTLTISSLQPEDFATYYCLQHNSYPYTFGQGTKLEIK |  |  |
|  | 8.33e-13 |  | H1H5769P (antibody, human IgG1, V domains shown) VH: EVQLVESGGGLVQPGRSLRLSCAASGFTFDDYTMHWVRQVPGKGLEWISGISWNSGSMDYADSVKGRFTISRDNARNSLFLQMNSVRTEDTALYYCAKDKSGYGSFYYGMDVWGQGTTVTVSS VL: EIVLTQSPGTLSLSPGDRATLSCRASQSVSSIYLAWYQQKPGQAPRLLIHGASTRATGIPDRFSGSGSGTDFTLTISRLEPEDFAVYYCQQRAHSPYTFGQGTKLEIK |  |  |
| 6.08e-12 | 7.92e-13 | 1.23 | H1H5781P (antibody, human IgG1, V domains shown, H1H: human IgG1 Fc) VH: EVQLVESGGGLVQPGRSLRLSCAASGFTFDDFTMHWVRQAPGKGLEWVSDISWNSGSIDYADSVKGRFTISRDNARNSLFLQMSSLRTEDTASYYCIKDKSGYGSYNYGLDVWGQGTTVTVSS VL: EIVLTQSPGTLSLSPGDRATLSCRASQSVSSIYLAWYQQKPGQAPRLLIHGASTRATGIPDRFSGSGSGTDFTLTISRLEPEDFALYYCHQRVSSPYTFGQGTKLEIK | 1.83 |  |
| 6.35e-12 | 2.74e-12 |  | H1H5771P (antibody, human IgG1, V domains shown) VH: EVQLVESGGGLVQPGRSLRLSCAASGFSFDNYAMHWVRQAPGQGLEWVSGISWNSGSRDYADSVKGRFTISRDNARNSLFLQMNSLSNEDTAMYYCAKDKSGYGSYFYGMDVWGQGTTVTVSS VL: EIVLTQSPGTLSLSPGDRATLSCRASQSIRNIYLAWYQQKPGQAPRLLIHGASTRATGIPDRFSGSGSGTDFTLTISRLEPEDFAVYYCQQRVSLPYTFGQGTKLEIK |  |  |
| 4.42e-12 | 1.47e-12 | 0.664 | H1H5772S (antibody, human IgG1, V domains shown, H1H: human IgG1 Fc; also called H1H5772P) VH: QVQLVESGGGLVQPGRSLRLSCAASGFSFDDYAMHWVRQAPGQGLEWVSGISWNGGSRDYADSVKGRFTISRDNARNSLFLQMNSLFTEDTALYYCAKDKSGYGSYFYGMDVWGQGTTVTVSS VL: EIVLTQSPGILSLSPGDRATLSCRASQSIRNIYLAWYQQKPGQAPRLLIHGASTRATGIPDRFSGSGSGTDFTLTISRLEPEDFAVYYCQQRVSSPYTFGQGTKLEIK | 0.689 |  |
| 3.44e-12 | 3.13e-13 | 0.762 | H1H5780P (antibody, human IgG1, V domains shown, H1H: human IgG1 Fc) VH: EVQLVESGGGLVQPGRSLRLSCAASGFTFDDYAMHWVRQAPGKGLEWVSGISWNGGSKDYADSVKGRFTISRDNTRNSLSLQMNSLRIEDTALYYCAKDKSGYGSFYYGLDVWGQGTTVTVSS VL: EIVLTQSPGTLSLSPGDRATLSCRASQSIRSIYLAWYQQKPGQAPRLLIHGASTRATGIPDRFSGSGSGTDFTLTISRLEPEDFAVYYCQQRVSSPYTFGQGTKLEIK | 4.03 |  |
